Measurements: paper PMC7192624, “A Snu114–GTP–Prp8 module forms a relay station for efficient splicing in yeast” (Nucleic Acids Research, 2020)
Substitutions are numbered along the chain they refer to.

Key:
Test in all cases: SEC; two proteins co-produced in insect cells, both Strep-tagged; StrepTactin capture, then SEC on Superdex S200 in 10 mM TRIS-HCl pH 8.0, 300 mM NaCl, 2 mM DTT; co-purification of wt and variant complexes
Conditions in all cases: both partners purified
[1] = target: T1, Snu114^72-1008 (yeast Snu114 lacking the acidic N-terminal region) (yeast, UniProt P36048 72-1008)
T1 construct: synthetic gene; Co-purifies with endogenous GTP; source: insect cells (MultiBac baculovirus); co-produced with Prp8 constructs or alone; purified (StrepTactin, SEC); not shown: Strep tag (from the vector pIDS-C-Strep), C-terminal, kept
T1 sequence (looked up): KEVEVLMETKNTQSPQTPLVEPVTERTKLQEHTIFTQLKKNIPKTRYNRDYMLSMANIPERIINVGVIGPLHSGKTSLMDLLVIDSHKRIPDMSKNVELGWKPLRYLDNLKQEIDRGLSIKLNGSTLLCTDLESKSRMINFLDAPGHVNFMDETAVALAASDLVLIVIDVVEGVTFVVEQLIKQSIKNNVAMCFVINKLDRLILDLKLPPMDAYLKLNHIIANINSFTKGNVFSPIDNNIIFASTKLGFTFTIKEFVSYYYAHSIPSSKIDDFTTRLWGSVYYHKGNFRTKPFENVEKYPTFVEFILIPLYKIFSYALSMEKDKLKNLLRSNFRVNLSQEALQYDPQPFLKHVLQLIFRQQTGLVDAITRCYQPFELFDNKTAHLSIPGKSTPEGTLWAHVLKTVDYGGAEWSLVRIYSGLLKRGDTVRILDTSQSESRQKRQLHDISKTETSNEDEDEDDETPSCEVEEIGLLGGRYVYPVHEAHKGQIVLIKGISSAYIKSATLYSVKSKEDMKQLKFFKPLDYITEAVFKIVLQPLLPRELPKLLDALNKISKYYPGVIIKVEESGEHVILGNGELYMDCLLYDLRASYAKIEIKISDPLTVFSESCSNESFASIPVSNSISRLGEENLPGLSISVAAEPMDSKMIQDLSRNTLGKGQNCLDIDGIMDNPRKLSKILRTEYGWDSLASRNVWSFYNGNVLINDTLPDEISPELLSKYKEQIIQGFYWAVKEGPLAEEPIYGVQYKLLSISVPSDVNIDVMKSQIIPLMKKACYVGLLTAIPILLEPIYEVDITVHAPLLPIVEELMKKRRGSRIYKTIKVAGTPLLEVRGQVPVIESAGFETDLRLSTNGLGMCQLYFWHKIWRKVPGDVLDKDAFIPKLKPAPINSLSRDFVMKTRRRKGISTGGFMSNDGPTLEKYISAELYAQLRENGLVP

[2] = target: T2, Snu114^72-1008 K146A (yeast, UniProt P36048 72-1008, K146A)
T2 construct: Insoluble when produced alone; also called Snu114^K146A; source: insect cells, co-produced with Prp8^SBR; complex purified; not shown: Strep tag (from the vector pIDS-C-Strep), C-terminal, kept
T2 sequence (looked up): T1 sequence (looked up) with K75A

[3] = target: T3, Snu114^72-1008 S190A (yeast, UniProt P36048 72-1008, S190A)
T3 construct: Insoluble when produced alone; also called Snu114^S190A; source: insect cells, co-produced with Prp8^SBR; complex purified; not shown: Strep tag (from the vector pIDS-C-Strep), C-terminal, kept
T3 sequence (looked up): T1 sequence (looked up) with S119A

Measured: binding result

B1: Prp8^SBR (Prp8 Snu114-binding region, Prp8 residues 315-555), recombinant (domain or fragment, yeast, UniProt P33334 315-555, looked up)
chain: STPLRDEVTDKNYYYLFDKKSFFNGKALNNAIPGGPKFEPLYPREEEEDYNEFNSIDRVIFRVPIRSEYKVAFPHLYNSRPRSVRIPWYNNPVSCIIQNDEEYDTPALFFDPSLNPIPHFIDNNSSLNVSNTKENGDFTLPEDFAPLLAEEEELILPNTKDAMSLYHSPFPFNRTKGKMVRAQDVALAKKWFLQHPDEEYPVKVKVSYQKLLKNYVLNELHPTLPTNHNKTKLLKSLKNTK
notes: Could not be produced alone; In the crystal residues 367-533 were modelled (416-419 and 435-449 without density); also called wt Prp8^SBR; Prp8^SBP; source: complex purified (StrepTactin, SEC); not shown: Strep tag (from the vector pFL-N-Strep), N-terminal, kept
binds: [1] | [2] | [3]
